Publication PMC12489471, “A multi-dentate, cooperative interaction between endo- and exo-ribonucleases within the bacterial RNA degradosome” (Nucleic Acids Research, 2025)

Target: T1, PNPase (Escherichia coli, UniProt P05055)
T1 construct: made in house; host or cells: E. coli Evo21(DE3)
T1 sequence (P05055 whole entry, looked up): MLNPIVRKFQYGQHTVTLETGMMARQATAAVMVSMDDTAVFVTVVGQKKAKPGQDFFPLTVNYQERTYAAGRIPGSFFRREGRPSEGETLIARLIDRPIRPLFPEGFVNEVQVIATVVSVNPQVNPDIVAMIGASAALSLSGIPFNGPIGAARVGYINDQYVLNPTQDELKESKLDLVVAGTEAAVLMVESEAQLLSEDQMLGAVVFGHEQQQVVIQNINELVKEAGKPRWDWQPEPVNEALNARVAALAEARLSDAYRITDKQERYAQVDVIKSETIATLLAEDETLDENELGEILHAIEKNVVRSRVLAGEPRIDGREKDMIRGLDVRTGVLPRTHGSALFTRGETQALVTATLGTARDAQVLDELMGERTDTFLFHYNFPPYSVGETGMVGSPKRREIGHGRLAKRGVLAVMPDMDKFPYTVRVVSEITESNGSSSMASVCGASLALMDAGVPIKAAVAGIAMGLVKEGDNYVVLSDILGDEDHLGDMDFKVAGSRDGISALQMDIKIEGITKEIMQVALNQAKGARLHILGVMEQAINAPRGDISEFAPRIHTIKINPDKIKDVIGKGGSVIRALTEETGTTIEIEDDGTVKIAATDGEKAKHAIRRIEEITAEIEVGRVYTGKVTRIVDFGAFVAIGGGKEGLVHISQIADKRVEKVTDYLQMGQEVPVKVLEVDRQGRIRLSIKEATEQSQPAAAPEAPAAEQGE
Format: binding, E. coli
Details: SPR, 25°C, immobilized PNPase C-His; HEPES pH 7.2; 0, 12.5, 25 and 50 nM (point mutants); contact 120 s, dissociation 120 s; duplicates

B1: RNase E 960 – 1061 wildtype: wildtype RNase E peptide 960–1061 (peptide)
chain: VVETAEVVVAEPEVVAQPAAPVVAEVAAEVETVAAVEPEVTVEHNHATAPMTRAPAPEYVPEAPRHSDWQRPTFAFEGKGAAGGHTATHHASAAPARPQPVE
modifications: left off: His6, N-terminal, cleaved | MBP, N-terminal, cleaved | intein, C-terminal, cleaved | choline-binding domain, C-terminal, cleaved
- Kd (dissociation rate constant, point mutants and wildtype): 0.026 s⁻¹
